This note sets out measurements from patent publication US20220411514A1, “ANTI-GAL3 ANTIBODIES AND METHODS OF USE FOR INSULIN RESISTANCE” (TrueBinding, Inc., priority 2021, published 2022).

First the molecules themselves.
B1: 20H5.A3-VH3VL1: anti-Gal3 antibody, VH SEQ ID NO: 814, VL SEQ ID NO: 829 (antibody, V domains shown)
VH: QIQLVQSGSELKKPGASVKVSCKASGYAFTTYGMSWVRQAPGQGLEWMGWVNTYSGVPTYADDFTGRFVFSLETSVSTAYLQISSLKAEDTAVYFCARGPYAMDYWGQGTLVTVSS
VL: DIQMTQSPSSLSASVGDRVTITCQASQDISNYLNWYQQKPGKAPKLLIYYTSSLLTGVPSRFSGSGSGTDYTFTISSLQPEDIATYYCQQYSKLPYTFGQGTKLEIK
modifications: VH-88 Peptide Sequence; VL-86 Peptide Sequence
B2: 20H5.A3-VH5VL1: anti-Gal3 antibody, VH SEQ ID NO: 817, VL SEQ ID NO: 832 (antibody, V domains shown)
VH: QVQLVQSGFELKKPGASVKISCKASGYAFTTYGMSWVRQAPGQGLEWMGWVNTYSGVPTYAQAFTGRFVFSLDTSVSTAYLQISSLKAEDTAVYYCARGPYAMDYWGQGTLVTVSS
VL: DIQMTQSPSSLSASVGDRVTITCQASQDISNYLNWYQQKPGKAPKLLIYYTSSLLTGVPSRFSGSGSGTDYTFTISSLQPEDIATYYCQQYSKLPYTFGQGTKLEIK
modifications: VH-91 Peptide Sequence; VL-89 Peptide Sequence
B3: 20H5.A3-VH5VL3: anti-Gal3 antibody, VH SEQ ID NO: 818, VL SEQ ID NO: 833 (antibody, V domains shown)
VH: QVQLVQSGFELKKPGASVKISCKASGYAFTTYGMSWVRQAPGQGLEWMGWVNTYSGVPTYAQAFTGRFVFSLDTSVSTAYLQISSLKAEDTAVYYCARGPYAMDYWGQGTLVTVSS
VL: DIQMTQSPSSLSASVGDRVTITCRASQDISNYLNWYQQKPGKAPKLLIYYTSSLLSGVPSRFSGSGSGTDYTLTISSLQPEDFATYYCQQYSKLPYTFGQGTKLEIK
modifications: VH-92 Peptide Sequence; VL-90 Peptide Sequence
B4: 20H5.A3-VH3VL3: anti-Gal3 antibody, VH SEQ ID NO: 815, VL SEQ ID NO: 830 (antibody, V domains shown)
VH: QIQLVQSGSELKKPGASVKVSCKASGYAFTTYGMSWVRQAPGQGLEWMGWVNTYSGVPTYADDFTGRFVFSLETSVSTAYLQISSLKAEDTAVYFCARGPYAMDYWGQGTLVTVSS
VL: DIQMTQSPSSLSASVGDRVTITCRASQDISNYLNWYQQKPGKAPKLLIYYTSSLLSGVPSRFSGSGSGTDYTLTISSLQPEDFATYYCQQYSKLPYTFGQGTKLEIK
modifications: VH-89 Peptide Sequence; VL-87 Peptide Sequence
B5: 20H5.A3-VH4VL1: anti-Gal3 antibody, VH SEQ ID NO: 816, VL SEQ ID NO: 831 (antibody, V domains shown)
VH: QIQLVQSGSELKKPGASVKVSCKASGYAFTTYGMSWVRQAPGQGLEWMGWVNTYSGVPTSADDFTGRFVFSLETSVSTAYLQISSLKAEDTAVYFCARGPYAMDYWGQGTLVTVSS
VL: DIQMTQSPSSLSASVGDRVTITCQASQDISNYLNWYQQKPGKAPKLLIYYTSSLLTGVPSRFSGSGSGTDYTFTISSLQPEDIATYYCQQYSKLPYTFGQGTKLEIK
modifications: VH-90 Peptide Sequence; VL-88 Peptide Sequence
B6: 20H5.A3-VH6VL3: anti-Gal3 antibody, VH SEQ ID NO: 820, VL SEQ ID NO: 835 (antibody, V domains shown)
VH: QVQLVQSGFELKKPGASVKISCKASGYAFTTYGMSWVRQAPGQGLEWMGWVNTYSGVPTSAQAFTGRFVFSLDTSVSTAYLQISSLKAEDTAVYYCARGPYAMDYWGQGTLVTVSS
VL: DIQMTQSPSSLSASVGDRVTITCRASQDISNYLNWYQQKPGKAPKLLIYYTSSLLSGVPSRFSGSGSGTDYTLTISSLQPEDFATYYCQQYSKLPYTFGQGTKLEIK
modifications: VH-94 Peptide Sequence; VL-92 Peptide Sequence
B7: 20H5.A3-VH6VL1: anti-Gal3 antibody, VH SEQ ID NO: 819, VL SEQ ID NO: 834 (antibody, V domains shown)
VH: QVQLVQSGFELKKPGASVKISCKASGYAFTTYGMSWVRQAPGQGLEWMGWVNTYSGVPTSAQAFTGRFVFSLDTSVSTAYLQISSLKAEDTAVYYCARGPYAMDYWGQGTLVTVSS
VL: DIQMTQSPSSLSASVGDRVTITCQASQDISNYLNWYQQKPGKAPKLLIYYTSSLLTGVPSRFSGSGSGTDYTFTISSLQPEDIATYYCQQYSKLPYTFGQGTKLEIK
modifications: VH-93 Peptide Sequence; VL-91 Peptide Sequence
B8: 2D10-hVH3-HVL2: anti-Gal3 antibody, VH SEQ ID NO: 811, VL SEQ ID NO: 826 (antibody, V domains shown)
VH: QVQLVQSGAEVKKPGASVKVSCKASGYTFTDYYINWVRQAPGQRLEWMGWIYPGSQDTKYSQKFQGRVTITVDTSASTAYMELSSLRSEDTAVYYCANYFGSSGWFFDVWGQGTMVTVSS
VL: DIVMTQSPLSLPVTPGEPASISCRSSKSLLHSDGITYLYWYLQKPGQSPQLLIYRMSNLASGVPDRFSGSGSGTDFTLKISRVEAEDVGVYYCAQMIEFPLTFGQGTKLEIK
modifications: VH-85 Peptide Sequence; VL-83 Peptide Sequence
B9: 2D10-hVH3-HVL4: anti-Gal3 antibody, VH SEQ ID NO: 813, VL SEQ ID NO: 828 (antibody, V domains shown)
VH: QVQLVQSGAEVKKPGASVKVSCKASGYTFTDYYINWVRQAPGQRLEWMGWIYPGSQDTKYSQKFQGRVTITVDTSASTAYMELSSLRSEDTAVYYCANYFGSSGWFFDVWGQGTMVTVSS
VL: DIVMTQSPLSLPVTLGQPASISCRSSKSLLHSDGITYLYWYQQRPGQSPQLLIYRMSNLDSGVPDRFSGSGSGTDFTLKISRVEAEDVGVYYCAQMIEFPLTFGQGTKLEIK
modifications: VH-87 Peptide Sequence; VL-85 Peptide Sequence
B10: 2D10-hVH3-HVL3: anti-Gal3 antibody, VH SEQ ID NO: 812, VL SEQ ID NO: 827 (antibody, V domains shown)
VH: QVQLVQSGAEVKKPGASVKVSCKASGYTFTDYYINWVRQAPGQRLEWMGWIYPGSQDTKYSQKFQGRVTITVDTSASTAYMELSSLRSEDTAVYYCANYFGSSGWFFDVWGQGTMVTVSS
VL: DVVMTQSPLSLPVTLGQPASISCRSSKSLLHSDGITYLYWYQQRPGQSPRLLIYRMSNRDSGVPDRFSGSGSGTDFTLKISRVEAEDVGVYYCAQMIEFPLTFGQGTKLEIK
modifications: VH-86 Peptide Sequence; VL-84 Peptide Sequence

In this experiment the test system is GLUT4 translocation in L6 GLUT4myc myoblasts. Nature of the experiment: Insulin-stimulated GLUT4 translocation with Gal3 and anti-Gal3 antibody. The experiment is classed as cell-based, rat. The note with it: 30 μg/mL Gal3 pre-incubated with 60 μg/mL antibody, 100 nM insulin. How it is done:
Rat L6 GLUT4myc myoblasts (Kerafast #ESK202-FP) express a Myc-tagged GLUT4 that can be detected with an anti-Myc antibody. These cells were grown in a 48-well plate in MEM u growth media (Gibco, #12-571-063)+10% fetal bovine serum (FBS; Corning #35-016-CV) until 90-95% confluence was reached. Cells were then washed in PBS and serum starved for 2 hours in MEM u growth media without FBS. Thirty (30) μg/mL recombinant human Gal3 (TrueBinding QCB200347) was pre-incubated with 60 μg/mL anti-Gal3 antibodies for 30 minutes before being added to the serum-starved cells for 1 hour at 37° C. At the end of incubation, half of the cells were treated with 100 nM insulin (Sigma-Aldrich #I5523-50MG) for 20 minutes while the other half acted as basal controls. After 20 minutes, cells were washed quickly with ice cold PBS twice, then incubated with 4% paraformaldehyde (Boster Bio #AR1068) for 10 minutes on ice followed by 10 minutes at room temperature. The cells were washed three times with PBS, then blocked with 0.5 mL 5% goat serum (Vector Laboratories #101098-382) in PBS for 15 minutes. After the blocking agent was aspirated from the cells, 1 μg/ml anti-Myc polyclonal antibody (Sigma-Aldrich #C-3956) in 5% goat serum was added for 1 hour. […] Primary antibody was aspirated away, and then cells washed 5 times with PBS. Next, cells (including background controls) were incubated with 1:1000 goat anti rabbit antibody secondary antibody (Abcam #Ab97051) in 5% Goat serum for 30 minutes at room temperature. After washing, cells were incubated with 400 μL of TMB (Thermo Scientific #PI34029) for 5 minutes, then 200 μL of 1N HCL (Avantor Performance #JT5620-2) was added to stop the reaction. 100 μL of the sample was transferred to a 96 well plate with duplicates transferred for each condition. Samples were read at 450 nm on a SpectraMax plate reader. […] The fold changes were plotted on GraphPad Prism and presented as mean (SEM) of the technical replicates. Statistical significance was determined using unpaired T-tests comparing samples treated with Gal3 and insulin with all other conditions.
As for B1, the “effect on Gal3 block of insulin-stimulated GLUT4 translocation” value (“effect on Gal3 block” for short) was “reduce the ability of Gal3 to block insulin-dependent GLUT4 translocation”. Take B2: the “effect on Gal3 block” value is “reduce the ability of Gal3 to block insulin-dependent GLUT4 translocation”. With B3, the “effect on Gal3 block” value is “reduce the ability of Gal3 to block insulin-dependent GLUT4 translocation”.

Regarding B4, the “effect on Gal3 block” value is reported as “reduce the ability of Gal3 to block insulin-dependent GLUT4 translocation”. Regarding B5, the “effect on Gal3 block” value is “reduce the ability of Gal3 to block insulin-dependent GLUT4 translocation”. For B6, the “effect on Gal3 block” value is reported as “reduce the ability of Gal3 to block insulin-dependent GLUT4 translocation”. In the case of B7, the “effect on Gal3 block” value is recorded as “reduce the ability of Gal3 to block insulin-dependent GLUT4 translocation”. For B8 the value was “reduce the ability of Gal3 to block GLUT4 translocation”; for B9, “reduce the ability of Gal3 to block GLUT4 translocation”. For B10 the value was “reduce the ability of Gal3 to block GLUT4 translocation”.
